# From article PMC5452487
# Legend:
# Details in all cases: EMSA with 0.75 ug rArcR-ACME and 61.2 pmol biotinylated probe; buffer, salt, pH and temperature not given in the material
# [1] = target: T1, rArcR-ACME (Staphylococcus aureus USA300_FPR3757) (UniProt E9KNS2); assay: competition
# T1 sequence: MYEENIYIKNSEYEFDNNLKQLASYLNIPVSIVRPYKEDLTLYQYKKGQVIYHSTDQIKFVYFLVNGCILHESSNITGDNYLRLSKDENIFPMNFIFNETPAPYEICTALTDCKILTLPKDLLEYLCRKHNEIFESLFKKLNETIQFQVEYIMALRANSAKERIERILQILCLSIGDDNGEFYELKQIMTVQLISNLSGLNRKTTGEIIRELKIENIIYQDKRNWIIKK
# [2] = target: T1, rArcR-ACME (Staphylococcus aureus USA300_FPR3757); assay: EMSA
# [3] = target: T1, rArcR-ACME (Staphylococcus aureus USA300_FPR3757); assay: UV cross-linking
Sequence,binding [1],binding [2],binding [3]
"GTACAAAATACATATTCATACAAAATTTTGCATTGAATAAATCTATATATGTGAAAACCCTCCCTAAACAATTGTGAATTAAATCACACGATGTTTTTTGAAAGCGTTTTATAATGTGAATGT (double strand) [arcACME promoter fragment, unlabelled specific competitor]",binds,,
"GTACAAAATACATATTCATACAAAATTTTGCATTGAATAAATCTATATATGTGAAAACCCTCCCTAAACAATTGTGAATTAAATCACACGATGTTTTTTGAAAGCGTTTTATAATGTGAATGT (double strand) [arcACME promoter probe, 123 bp]",,binds,binds
"CAAATGATCACAGCATTTGGTACAGGAATCGGTGGCGACTTTGATCTAGCGAAAGCAAGATATCACAAAATCGTCATTATGACTGATGCCG (double strand) [gyrB fragment, non-specific competitor, 91 bp]",no binding,,
